# Test results as given in IntAct's records for PubMed 22902366.
# B1: Macrophage colony-stimulating factor 1 (Homo sapiens), P09603 (parent)
# chain: MTAPGAAGRCPPTTWLGSLLLLVCLLASRSITEEVSEYCSHMIGSGHLQSLQRLIDSQMETSCQITFEFVDQEQLKDPVCYLKKAFLLVQDIMEDTMRFRDNTPNAIAIVQLQELSLRLKSCFTKDYEEHDKACVRTFYETPLQLLEKVKNVFNETKNLLDKDWNIFSKNCNNSFAECSSQDVVTKPDCNCLYPKAIPSSDPASVSPHQPLAPSMAPVAGLTWEDSEGTEGSSLLPGEQPLHTVDPGSAKQRPPRSTCQSFEPPETPVVKDSTIGGSPQPRPSVGAFNPGMEDILDSAMGTNWVPEEASGEASEIPVPQGTELSPSRPGGGSMQTEPARPSNFLSASSPLPASAKGQQPADVTGTALPRVGPVRPTGQDWNHTPQKTDHPSALLRDPPEPGSPRISSLRPQGLSNPSTLSAQPQLSRSHSSGSVLPLGELEGRRSTRDRRSPAEPEGGPASEGAARPLPRFNSVPLTDTGHERQSEGSFSPQLQESVFHLLVPSVILVLLAVGGLLFYRWRRRSHQEPQRADSPLEQPEGSPLTQDDRQVELPV
# B2: Secreted protein BARF1 (Epstein-Barr virus (strain B95-8) (HHV-4)), P03228 (parent)
# chain: MARFIAQLLLLASCVAAGQAVTAFLGERVTLTSYWRRVSLGPEIEVSWFKLGPGEEQVLIGRMHHDVIFIEWPFRGFFDIHRSANTFFLVVTAANISHDGNYLCRMKLGETEVTKQEHLSVVKPLTLSVHSERSQFPDFSVLTVTCTVNAFPHPHVQWLMPEGVEPAPTAANGGVMKEKDGSLSVAVDLSLPKPWHLPVTCVGKNDKEEAHGVYVSGYLSQ
# partner: B1 chain
# Variants of: B1
# Conditions: with csf1r_human CSF1R
row,Variant,effect of a mutation on the interaction
1,MTAPGAAGRCPPTTWLGSLLLLVCLLASRSITEEVSEYCSAMIGSGALQSLQRLIDSQMETSCQITFEFVDQEQLKDPVCYLKKAFLLVAAIMEDTMRFRDNTPNAIAIVQLQELSLRLKSCFTKDYEEHDKACVRTFYETPLQLLEKVKNVFNETKNLLDKDWNIFSKNCNNSFAECSSQDVVTKPDCNCLYPKAIPSSDPASVSPHQPLAPSMAPVAGLTWEDSEGTEGSSLLPGEQPLHTVDPGSAKQRPPRSTCQSFEPPETPVVKDSTIGGSPQPRPSVGAFNPGMEDILDSAMGTNWVPEEASGEASEIPVPQGTELSPSRPGGGSMQTEPARPSNFLSASSPLPASAKGQQPADVTGTALPRVGPVRPTGQDWNHTPQKTDHPSALLRDPPEPGSPRISSLRPQGLSNPSTLSAQPQLSRSHSSGSVLPLGELEGRRSTRDRRSPAEPEGGPASEGAARPLPRFNSVPLTDTGHERQSEGSFSPQLQESVFHLLVPSVILVLLAVGGLLFYRWRRRSHQEPQRADSPLEQPEGSPLTQDDRQVELPV [H41A;H47A;Q90A;D91A],decreasing interaction strength

# Variants of: B2
# Conditions: with csf1_human CSF1, P09603
row,Variant,effect of a mutation on the interaction
1,MARFIAQLLLLASCVAAGQAVTAFLGERVTLTSAWAAAALGPEIEVSWFKLGPGEEQVLIGRMHHDVIFIEWPFRGFFDIHAAAAAFFLVVTAANISHDGNYLCRMKLGETEVTKQEHLSVVKPLTLSVHSERSQFPDFSVLTVTCTVNAFPHPHVQWLMPEGVEPAPTAANGGVMKEKDGSLSVAVDLSLPKPWHLPVTCVGKNDKEEAHGVYVSGYLSQ [Y34A;R36A;R37A;V38A;S39A;R82A;S83A;N85A;T86A],decreasing interaction strength
2,MARFIAQLLLLASCVAAGQAVTAFLGERVTLTSAWAAAALGPEIEVSWFKLGPGEEQVLIGRMHHDVIFIEWPFRGFFDIHRSANTFFLVVTAANISHDGNYLCRMKLGETEVTKQEHLSVVKPLTLSVHSERSQFPDFSVLTVTCTVNAFPHPHVQWLMPEGVEPAPTAANGGVMKEKDGSLSVAVDLSLPKPWHLPVTCVGKNDKEEAHGVYVSGYLSQ [Y34A;R36A;R37A;V38A;S39A],decreasing interaction strength
